From publication PMC6925387 (Life Science Alliance, 2019)

T1: CedV-G receptor-binding six-bladed β-propeller domain (residues 209–622) (Cedar virus, UniProt J7H333 209-622, high-mannose N-linked glycans (expression in the presence of kifunensine))
T1 sequence: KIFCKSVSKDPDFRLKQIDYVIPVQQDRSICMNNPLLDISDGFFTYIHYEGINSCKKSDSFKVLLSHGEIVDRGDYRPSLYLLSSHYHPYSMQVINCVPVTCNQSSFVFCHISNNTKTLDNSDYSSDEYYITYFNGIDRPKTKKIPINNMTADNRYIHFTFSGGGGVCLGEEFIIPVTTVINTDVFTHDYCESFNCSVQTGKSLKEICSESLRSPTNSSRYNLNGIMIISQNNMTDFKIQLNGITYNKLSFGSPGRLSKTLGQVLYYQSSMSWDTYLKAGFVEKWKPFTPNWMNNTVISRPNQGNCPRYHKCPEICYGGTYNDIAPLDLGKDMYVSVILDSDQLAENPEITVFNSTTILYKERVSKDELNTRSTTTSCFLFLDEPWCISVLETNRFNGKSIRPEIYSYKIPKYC

T2: Nipah virus attachment glycoprotein (NiV-G), HA-tagged, expressed on the cell surface (Nipah virus, UniProt Q9IH62 1-602)
T2 construct: also called HNV-G; G of NiVpp
T2 sequence: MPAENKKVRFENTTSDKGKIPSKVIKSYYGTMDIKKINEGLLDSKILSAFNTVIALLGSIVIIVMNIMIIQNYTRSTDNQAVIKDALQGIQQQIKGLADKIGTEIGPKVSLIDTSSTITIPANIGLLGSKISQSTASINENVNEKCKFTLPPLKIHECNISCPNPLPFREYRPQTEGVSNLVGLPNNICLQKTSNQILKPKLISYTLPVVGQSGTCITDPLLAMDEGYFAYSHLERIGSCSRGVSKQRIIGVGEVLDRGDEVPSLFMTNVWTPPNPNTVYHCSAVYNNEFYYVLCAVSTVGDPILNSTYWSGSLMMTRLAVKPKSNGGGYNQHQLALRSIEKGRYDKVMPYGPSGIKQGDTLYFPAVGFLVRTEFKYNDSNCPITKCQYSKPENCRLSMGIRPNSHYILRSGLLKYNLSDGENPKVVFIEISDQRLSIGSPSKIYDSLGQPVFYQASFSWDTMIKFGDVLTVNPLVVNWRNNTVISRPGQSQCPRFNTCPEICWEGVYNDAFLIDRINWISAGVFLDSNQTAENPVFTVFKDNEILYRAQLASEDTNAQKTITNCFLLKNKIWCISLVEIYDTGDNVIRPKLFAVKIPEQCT

T3: Hendra virus attachment glycoprotein (HeV-G), HA-tagged, expressed on the cell surface (Hendra virus, UniProt O89343 1-604)
T3 construct: also called HNV-G; G of HeVpp; not shown: HA, C-terminal, kept
T3 sequence: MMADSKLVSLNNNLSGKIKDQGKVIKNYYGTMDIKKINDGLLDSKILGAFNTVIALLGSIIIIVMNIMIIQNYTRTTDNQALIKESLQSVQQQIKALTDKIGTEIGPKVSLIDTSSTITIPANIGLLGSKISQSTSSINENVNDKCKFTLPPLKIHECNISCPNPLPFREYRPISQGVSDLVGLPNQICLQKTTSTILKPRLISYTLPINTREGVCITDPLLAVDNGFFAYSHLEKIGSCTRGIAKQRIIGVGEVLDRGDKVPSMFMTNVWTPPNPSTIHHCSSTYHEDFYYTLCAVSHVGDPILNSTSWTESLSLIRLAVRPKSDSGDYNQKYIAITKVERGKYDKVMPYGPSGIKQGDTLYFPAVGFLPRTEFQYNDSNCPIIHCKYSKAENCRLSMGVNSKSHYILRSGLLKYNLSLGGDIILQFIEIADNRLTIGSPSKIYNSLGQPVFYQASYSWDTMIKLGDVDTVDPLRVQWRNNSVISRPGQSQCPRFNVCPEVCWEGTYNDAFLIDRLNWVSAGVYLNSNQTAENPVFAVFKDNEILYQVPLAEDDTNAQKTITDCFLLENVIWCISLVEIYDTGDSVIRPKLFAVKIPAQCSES

T4: Ghana virus attachment glycoprotein (GhV-G), HA-tagged, expressed on the cell surface (Ghana virus, UniProt I0E093 1-632)
T4 construct: also called Ghanaian bat henipavirus G; HNV-G; not shown: HA, C-terminal, kept
T4 sequence: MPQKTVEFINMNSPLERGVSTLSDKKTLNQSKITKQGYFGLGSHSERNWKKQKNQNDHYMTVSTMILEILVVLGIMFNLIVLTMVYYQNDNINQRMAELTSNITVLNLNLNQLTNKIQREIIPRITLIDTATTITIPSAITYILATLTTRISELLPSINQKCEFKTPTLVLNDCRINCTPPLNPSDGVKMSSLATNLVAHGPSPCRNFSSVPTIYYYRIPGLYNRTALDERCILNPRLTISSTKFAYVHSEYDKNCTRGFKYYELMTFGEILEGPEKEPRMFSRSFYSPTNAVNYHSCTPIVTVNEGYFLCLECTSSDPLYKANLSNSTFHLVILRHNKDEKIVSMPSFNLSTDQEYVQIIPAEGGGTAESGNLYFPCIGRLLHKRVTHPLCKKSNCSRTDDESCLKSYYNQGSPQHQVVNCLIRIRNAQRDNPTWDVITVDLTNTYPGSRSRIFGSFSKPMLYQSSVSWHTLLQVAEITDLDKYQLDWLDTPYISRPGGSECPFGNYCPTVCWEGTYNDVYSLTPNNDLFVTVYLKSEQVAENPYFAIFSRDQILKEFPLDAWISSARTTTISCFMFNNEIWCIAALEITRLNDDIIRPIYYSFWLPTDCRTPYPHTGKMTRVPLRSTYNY

B1: Human ephrin-B1 N-terminal extracellular domain (residues 29–167) (domain or fragment)
chain: AKNLEPVSWSSLNPKFLSGKGLVIYPKIGDKLDIICPRAEAGRPYEYYKLYLVRPEQAAACSTVLDPNVLVTCNRPEQEIRFTIKFQEFSPNYMGLEFKKHHDYYITSTSNGSLEGLENREGGVCRTRTMKIIMKVGQD
modifications: high-mannose N-linked glycans (expression in the presence of kifunensine)
notes: also called extracellular β-barrel domain of human ephrin-B1; ephrin-B1 ectodomain
B2: Soluble human ephrin-B2–Fc (Fc fusion)
chain: IVLEPIYWNSSNSKFLPGQGLVLYPQIGDKLDIICPKVDSKTVGQYEYYKVYMVDKDQADRCTIKKENTPLLNCAKPDQDIKFTIKFQEFSPNLWGLEFQKNKDYYIISTSNGSLEGLDNQEGGVCQTRAMKILMKVGQDASSAGSTRNKDPTRRPELEAGTNGRSSTTSPFVKPNPGSSTDGNSAGHSGNNILGSEVALFA
notes: also called sEphrin-B2–Fc; ephrin-B–Fc; source: bought: R&D Systems
B3: Soluble human ephrin-B3–Fc (Fc fusion)
chain: LSLEPVYWNSANKRFQAEGGYVLYPQIGDRLDLLCPRARPPGPHSSPNYEFYKLYLVGGAQGRRCEAPPAPNLLLTCDRPDLDLRFTIKFQEYSPNLWGHEFRSHHDYYIIATSDGTREGLESLQGGVCLTRGMKVLLRVGQSPRGGAVPRKPVSEMPMERDRGAAHSLEPGKENLPGDPTSNATSRGAEGPLPPPSMP
notes: also called sEphrin-B3–Fc; ephrin-B–Fc; source: bought: R&D Systems

Tests used:
[1] = molecular target: Cedar virus attachment glycoprotein (CedV-G), HA-tagged, expressed on the cell surface (Cedar virus); test: flow cytometry on cells
[2] = molecular target: T1, CedV-G receptor-binding six-bladed …; test: crystal structure; conditions: both partners purified
[3] = molecular target: T2, Nipah virus attachment glycoprotein …; test: flow cytometry on cells; conditions: one partner purified
[4] = molecular target: T3, Hendra virus attachment glycoprotein …; test: flow cytometry on cells; conditions: one partner purified
[5] = molecular target: T4, Ghana virus attachment glycoprotein …; test: flow cytometry on cells; conditions: one partner purified

Molecule	Kd [1] [nM]	Kd [3] [nM]	Kd [4] [nM]	other results
Soluble human ephrin-B1–Fc (from UniProt P98172) (Fc fusion)	4	–	–	–
Soluble human ephrin-B2–Fc (from UniProt P52799) (Fc fusion)	2.3	–	–	–
B1	–	–	–	stoichiometry N [2]: 1
B2	–	1.4	0.86	Kd [5]: 0.82 nM
B3	–	2	5.3	–
